In patent US20040086848A1 (University of Texas, published 2004):

What was measured:
[1] = target: the molecule itself; assay: gel filtration chromatography
[2] = target: T1, endogenous RANK of RAW264.7 cells (mouse, UniProt O35305 31-625); assay: interaction with endogenous RANK in RAW cells (data not shown)
T1 construct: whole, on cells; Immunoprecipitated from cell lysates with anti-RANK; The species follows from the mouse cell line
T1 sequence (looked up): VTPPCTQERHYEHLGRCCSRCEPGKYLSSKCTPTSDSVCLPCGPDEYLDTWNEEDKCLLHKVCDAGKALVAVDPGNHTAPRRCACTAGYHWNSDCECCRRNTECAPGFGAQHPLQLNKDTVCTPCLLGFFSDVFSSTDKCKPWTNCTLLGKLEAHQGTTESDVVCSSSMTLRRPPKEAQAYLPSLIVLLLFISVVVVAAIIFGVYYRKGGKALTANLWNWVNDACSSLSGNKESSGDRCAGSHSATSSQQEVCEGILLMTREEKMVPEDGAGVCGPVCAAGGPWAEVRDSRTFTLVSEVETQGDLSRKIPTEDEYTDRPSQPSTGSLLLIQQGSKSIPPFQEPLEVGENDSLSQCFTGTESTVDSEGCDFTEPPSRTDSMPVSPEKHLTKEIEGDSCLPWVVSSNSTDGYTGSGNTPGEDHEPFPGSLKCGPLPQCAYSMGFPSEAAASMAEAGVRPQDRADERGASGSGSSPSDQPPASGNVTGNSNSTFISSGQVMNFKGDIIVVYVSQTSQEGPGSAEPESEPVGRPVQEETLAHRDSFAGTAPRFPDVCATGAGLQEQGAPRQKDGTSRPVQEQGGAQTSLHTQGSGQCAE

B1: RAIN mutant K90/91A (from pCMV3×FLAG-hRAIN, stably expressed in RAW cells) (other, human, UniProt Q96GX9 1-242, looked up)
chain: MSGCDAREGDCCSRRCGAQDKEHPRYLIPELCKQFYHLGWVTGTGGGISLKHGDEIYIAPSGVQKERIQPEDMFVCDINEKDISGPSPSAALKKSQCTPLFMNAYTMRGAGAVIHTHSKAAVMATLLFPGREFKITHQEMIKGIKKCTSGGYYRYDDMLVVPIIENTPEEKDLKDRMAHAMNEYPDSCAVLVRRHGVYVWGETWEKAKTMCECYDYLFDIAVSMKKVGLDPSQLPVGENGIV
notes: range 1-242; not shown: 3×FLAG tag of pCMV3×FLAG-14 at the C-terminus
- binding result [1]: binds
- binding result [2]: binds

B2: RAIN mutant R194A (from pCMV3×FLAG-hRAIN, stably expressed in RAW cells) (other, human, UniProt Q96GX9 1-242, looked up)
chain: MSGCDAREGDCCSRRCGAQDKEHPRYLIPELCKQFYHLGWVTGTGGGISLKHGDEIYIAPSGVQKERIQPEDMFVCDINEKDISGPSPSKKLKKSQCTPLFMNAYTMRGAGAVIHTHSKAAVMATLLFPGREFKITHQEMIKGIKKCTSGGYYRYDDMLVVPIIENTPEEKDLKDRMAHAMNEYPDSCAVLVRAHGVYVWGETWEKAKTMCECYDYLFDIAVSMKKVGLDPSQLPVGENGIV
notes: as for B1
- binding result [1]: binds
- binding result [2]: binds
